According to publication doi:10.1101/2025.09.22.677689:

Biological target: preformed TPX2-NLS - importin α ΔIBB complex (mouse) (UniProt A2APB8)
Test: pull-down; competition: GST-TPX2 NLS on magnetic glutathione beads first incubated with importin α ΔIBB, washed, then increasing concentrations of CFDP1 proteins in transfer buffer, 1 h at 4°C; SDS-PAGE with Coomassie stain or immunoblot

percent decrease of TPX2 bound importin α: 11%
Substance: CFDP1 basic C-terminal fragment (aa 150-295), HIS tagged (from UniProt O88271 150-295) (domain or fragment)
